Measurements as given in patent US12269859B2, “Synthetic immune receptors and methods of use thereof” (Angeles Therapeutics, Inc., priority 2016, dated 2025).

System: target antigen-expressing cell line
Assay: Jurkat NFAT-GFP assay, coculture with target cell lines expressing the respective target antigen (summary Table 10A)
Type: cell-based, human
Design: key: The signs +/−, +, 2+ etc. after the name of the cell lines indicate the relative degree of positivity on the Jurkat-NFAT-GFP assay as measured by the % GFP positive cells; +: relative degree of positivity on the Jurkat-NFAT-GFP assay as measured by the % GFP positive cells; 2+: relative degree of positivity on the Jurkat-NFAT-GFP assay as measured by the % GFP positive cells
Settings: relative % GFP positive cells; for NFAT-GFP ASSAY Positive Cell lines: NALM6: SIR-expressing Jurkat-NFAT-GFP cells cocultured with NALM6; for NFAT-GFP ASSAY Positive Cell lines: RAJI: SIR-expressing Jurkat-NFAT-GFP cells cocultured with RAJI
In short: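 Positivity is scored when SIR-expressing reporter Jurkat cells show more GFP-positive cells than parental controls after coculture with the antigen-bearing line. Effector-to-target ratio is about 1:2, coculture lasts roughly 4–18 hours, and GFP is quantified by FACS.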

B1: 010417-I04 (protein)
chain: MALPVTALLLPLALLLHAARPLEGKPIPNPLLGLDSTGSGEDLKNVFPPEVAVFEPSKAEIAHTQKATLVCLATGFYPDHVELSWWVNGKEVHSGVCTDPQPLKEQPALNDSRYCLSSRLRVSATFWQNPRNHFRCQVQFYGLSENDEWTQDRAKPVTQIVSAEAWGRADCGITSASYHQGVLSATILYEILLGKATLYAVLVSALVLMAMVKRKDSRGRAKRSGSGATNFSLLKQAGDVEENPGPTSMALPVTALLLPLALLLHAARPEIVLTQSPDFQSVTPKEKVTITCRASESVDTFGISFMNWFQQKPDQSPKLLIHAASNQGSGVPSRFSGSGSGTDFTLTINSLEAEDAATYYCQQSKEVPFTFGGGTKVEIKGGGGSGGGGSGGGGSEVQLVESGGGLVQPGGSLRLSCAASGFTFSSSWMNWVRQAPGKGLEWVGRIYPGDGDTNYNGKFKGRFTISRDDSKNSLYLQMNSLKTEDTAVYYCARSGFITTVLDFDYWGQGTLVTVSSTREQKLISEEDLGSGTPFPSLAPPIMLLVDGKQQMVVVCLVLDVAPPGLDSPIWFSAGNGSALDAFTYGPSPATDGTWTNLAHLSLPSEELASWEPLVCHTGPGAEGHSRSTQPMHLSGEASTARTCPQEPLRGTPGGALWLGVLRLLLFKLLLFDLLLTCSCLCDPAGPLPSPATTTRLRALGSHRLHPATETGGREATSSPRPQPRDRRWGDTPPGRKPGSPVRAKRSGSGVKQTLNFDLLKLAGDVESNPGPSRSRGHMTEYKPTVRLATRDDVPRAVRTLAAAFADYPATRHTVDPDRHIERVTELQELFLTRVGLDIGKVWVADDGAAVAVWTTPESVEAGAVFAEIGPRMAELSGSRLAAQQQMEGLLAPHRPKEPAWFLATVGVSPDHQGKGLGSAVVLPGVEAAERAGVPAFLETSAPRNLPFYERLGFTVTADVEVPEGPRTWCMTRKPGA
  NFAT-GFP ASSAY Positive Cell lines: NALM6: (+/−)
  NFAT-GFP ASSAY Positive Cell lines: RAJI: RAJI (+), NALM6

B2: 010417-L03 (protein)
chain: MALPVTALLLPLALLLHAARPLEQKLISEEDLGSGDRPDPAVYQLRDSKSSDKSVCLFTDFDSQTNVSQSKDSDVYITDKCVLDMRSMDFKSNSAVAWSNKSDFACANAFNNSIIPEDTFFPSPESSCDVKLVEKSFETDTNLNFQNLSVIGFRILLLKVAGFNLLMTLRLWSSSSRAKRSGSGVKQTLNFDLLKLAGDVESNPGPTSMALPVTALLLPLALLLHAARPEIVLTQSPDFQSVTPKEKVTITCRASESVDTFGISFMNWFQQKPDQSPKLLIHAASNQGSGVPSRFSGSGSGTDFTLTINSLEAEDAATYYCQQSKEVPFTFGGGTKVEIKGGGGSGGGGSGGGGSEVQLVESGGGLVQPGGSLRLSCAASGFTFSSSWMNWVRQAPGKGLEWVGRIYPGDGDTNYNGKFKGRFTISRDDSKNSLYLQMNSLKTEDTAVYYCARSGFITTVLDFDYWGQGTLVTVSSTRGKPIPNPLLGLDSTGSGEDLKNVFPPEVAVFEPSEAEISHTQKATLVCLATGFYPDHVELSWWVNGKEVHSGVCTDPQPLKEQPALNDSRYCLSSRLRVSATFWQNPRNHFRCQVQFYGLSENDEWTQDRAKPVTQIVSAEAWGRADCGFTSESYQQGVLSATILYEILLGKATLYAVLVSALVLMAMVKRKDSRGRAKRSGSGATNFSLLKQAGDVEENPGPSRGHMTEYKPTVRLATRDDVPRAVRTLAAAFADYPATRHTVDPDRHIERVTELQELFLTRVGLDIGKVWVADDGAAVAVWTTPESVEAGAVFAEIGPRMAELSGSRLAAQQQMEGLLAPHRPKEPAWFLATVGVSPDHQGKGLGSAVVLPGVEAAERAGVPAFLETSAPRNLPFYERLGFTVTADVEVPEGPRTWCMTRKPGA
  NFAT-GFP ASSAY Positive Cell lines: NALM6: RAJI (+), NALM6 (+)
  NFAT-GFP ASSAY Positive Cell lines: RAJI: RAJI (+), NALM6 (+)

B3: 011317-A06 (protein)
chain: MALPVTALLLPLALLLHAARPLEQKLISEEDLGSGDRPDPAVYQLRDSKSSDKSVCLFTDFDSQTNVSQSKDSDVYITDKCVLDMRSMDFKSNSAVAWSNKSDFACANAFNNSIIPEDTFFPSPESSCDVKLVEKSFETDTNLNFQNLSVIGFRILLLKVAGFNLLMTLRLWSSSSRAKRSGSGVKQTLNFDLLKLAGDVESNPGPTSMALPVTALLLPLALLLHAARPEIVLTQSPDFQSVTPKEKVTITCRASESVDTFGISFMNWFQQKPDQSPKLLIHAASNQGSGVPSRFSGSGSGTDFTLTINSLEAEDAATYYCQQSKEVPFTFGGGTKVEIKGGGGSGGGGSGGGGSEVQLVESGGGLVQPGGSLRLSCAASGFTFSSSWMNWVRQAPGKGLEWVGRIYPGDGDTNYNGKFKGRFTISRDDSKNSLYLQMNSLKTEDTAVYYCARSGFITTVLDFDYWGQGTLVTVSSTRGKPIPNPLLGLDSTGSGEDLKNVFPPEVAVFEPSEAEISHTQKATLVCLATGFYPDHVELSWWVNGKEVHSGVCTDPQPLKEQPALNDSRYCLSSRLRVSATFWQNPRNHFRCQVQFYGLSENDEWTQDRAKPVTQIVSAEAWGRADCGFTSESYQQGVLSATILYEILLGKATLYAVLVSALVLMAMVKRKDSRGRAKRSGSGATNFSLLKQAGDVEENPGPSRGHMTEYKPTVRLATRDDVPRAVRTLAAAFADYPATRHTVDPDRHIERVTELQELFLTRVGLDIGKVWVADDGAAVAVWTTPESVEAGAVFAEIGPRMAELSGSRLAAQQQMEGLLAPHRPKEPAWFLATVGVSPDHQGKGLGSAVVLPGVEAAERAGVPAFLETSAPRNLPFYERLGFTVTADVEVPEGPRTWCMTRKPGA
  NFAT-GFP ASSAY Positive Cell lines: NALM6: (2+)
  NFAT-GFP ASSAY Positive Cell lines: RAJI: RAJI (2+), NALM6

B4: 041416-U01 (protein)
chain: MALPVTALLLPLALLLHAARPDIVLTQSPATLSLSPGDRATISCRASESVTILGSHLIYWYQQKPGQPPRLLIQLASNVQTGVPARFSGSGSRTDFTLTISSVEPEDFAVYYCLQSRTIPRTFGQGTKLEIKRLEGKPIPNPLLGLDSTGSGEDLKNVFPPEVAVFEPSKAEIAHTQKATLVCLATGFYPDHVELSWWVNGKEVHSGVCTDPQPLKEQPALNDSRYCLSSRLRVSATFWQNPRNHFRCQVQFYGLSENDEWTQDRAKPVTQIVSAEAWGRADCGITSASYHQGVLSATILYEILLGKATLYAVLVSALVLMAMVKRKDSRGRAKRSGSGATNFSLLKQAGDVEENPGPTSMDWIWRILFLVGAATGAHSFEQVQLVQSGPEVKKPGESVKISCKASGYTFRHYSMNWVKQAPGQGLKWMGRINTESGVPIYADDFKGRFSFTVDTSASTAYLEISSLTSEDTAVYFCSNDYLYSLDFWGQGTTLTVSSTREQKLISEEDGSGTPFPSLAPPIMLLVDGKQQMVVVCLVLDVAPPGLDSPIWFSAGNGSALDAFTYGPSPATDGTWTNLAHLSLPSEELASWEPLVCHTGPGAEGHSRSTQPMHLSGEASTARTCPQEPLRGTPGGALWLGVLRLLLFKLLLFDLLLTCSCLCDPAGPLPSPATTTRLRALGSHRLHPATETGGREATSSPRPQPRDRRWGDTPPGRKPGSPVRAKRSGSGVKQTLNFDLLKLAGDVESNPGPSRGHMTEYKPTVRLATRDDVPRAVRTLAAAFADYPATRHTVDPDRHIERVTELQELFLTRVGLDIGKVWVADDGAAVAVWTTPESVEAGAVFAEIGPRMAELSGSRLAAQQQMEGLLAPHRPKEPAWFLATVGVSPDHQGKGLGSAVVLPGVEAAERAGVPAFLETSAPRNLPFYERLGFTVTADVEVPEGPRTWCMTRKPGA
modifications: Polynucleotide encoding a Synthetic Immune Receptor (SIR)
SIR-expressing Jurkat-NFAT-GFP cells cocultured with L363
  NFAT-GFP ASSAY Positive Cell lines: L363: L363 (2+), U266
SIR-expressing Jurkat-NFAT-GFP cells cocultured with U266
  NFAT-GFP ASSAY Positive Cell lines: U266: (2+)
